From PMC4102245, “A molecular model for the role of SYCP3 in meiotic chromosome organisation” (eLife, 2014)

Target: T1, SYCP3 dCt6 dBP1+2 (human, UniProt Q8IZU3 1-230, K52A;R53A;R54A;K55A;K56A;R57A;K88A;R89A;K90A;R91A)
T1 sequence: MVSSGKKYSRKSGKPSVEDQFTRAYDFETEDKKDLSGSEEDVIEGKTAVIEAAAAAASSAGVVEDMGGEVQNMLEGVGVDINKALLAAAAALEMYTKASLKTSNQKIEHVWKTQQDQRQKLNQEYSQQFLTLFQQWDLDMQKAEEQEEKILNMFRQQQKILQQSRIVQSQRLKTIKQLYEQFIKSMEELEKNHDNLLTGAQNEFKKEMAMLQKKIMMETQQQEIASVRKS
Experiment: fluorescence anisotropy; up to 20 uM protein; 20 mM Tris pH 8.0, 150 mM KCl; FA at 25 C with 25 nM DNA (0-20 uM protein); EMSA 5 min at 4 C with 18.7 uM (per bp) DNA (0-40 uM protein), 0.5% agarose, 0.5x TBE
Details: protein: recombinant; tags: N-terminal His6, TEV-cleaved; chain copies: 4; label: 5' FAM

B1: 60 bp FAM-dsDNA (dsDNA)
DNA 1: ATGGTGTGTGTAGGTTAATGTGAGGAGGAGAGGTGAAGAAGGAGGAGAGAAGAAGGAGGC
DNA 2: GCCTCCTTCTTCTCTCCTCCTTCTTCACCTCTCCTCCTCACATTAACCTACACACACCAT
B1: no binding.
